# Measurements published in paper PMC10525234, “Antifungal Action of Arabidopsis thaliana TCP21 via Induction of Oxidative Stress and Apoptosis” (Antioxidants, 2023).
# Molecular target: the molecule itself
# Experiment: negative-stain transmission electron microscopy; purified AtTCP21 on a glow-discharged carbon-coated copper grid, negatively stained with 2% uranyl acetate; protein dialyzed against 25 mM HEPES pH 7.2, 150 mM NaCl
# Chain of Arabidopsis thaliana TCP21 (Q9FTA2 whole entry, change not shown): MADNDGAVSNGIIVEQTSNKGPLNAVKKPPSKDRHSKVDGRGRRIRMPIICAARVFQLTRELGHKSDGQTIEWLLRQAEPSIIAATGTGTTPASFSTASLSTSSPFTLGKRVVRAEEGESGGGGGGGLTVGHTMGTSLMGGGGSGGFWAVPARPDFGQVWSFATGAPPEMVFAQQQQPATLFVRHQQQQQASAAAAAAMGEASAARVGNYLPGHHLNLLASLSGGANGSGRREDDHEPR
protein,measurement,value
"Arabidopsis thaliana TCP21 (natural protein, full-length protein expressed from cDNA; also called AtTCP21; recombinant AtTCP21; source: E. coli BL21(DE3), pET28a, purified (Ni-NTA, SEC)) not shown",binding result,binds
